Data: patent US12559560B2, “Antibody-based compositions for targeting tropomyosin receptor kinase B (TrkB) isoforms” (Fred Hutchinson Cancer Center, priority 2020, dated 2026)

Tests used:
Assay type in all cases: binding
[1] = biological target: T1, TrkB.T1 (Mus musculus, UniProt P15209); test: TrkB.T1 immunohistochemistry on mouse brain / mouse tumors
T1 construct: from tissue; host or cells: formalin-fixed paraffin-embedded mouse brain and RCAS/tv-a mouse gliomas
Protocol: (§1) Antibody validation phase—large batch IHC. Four-μm sections of a multi-tissue block containing human brain, mouse brain, TrkB.T1^−/− mouse brain, a cell pellet over-expressing TrkB.T1 and a cell pellet without TrkB.T1 were cut and stained with the Leica Bond Rx (Leica Biosystems, Buffalo Grove, IL). Slides were pretreated with H2 antigen retrieval buffer for 20 min. Endogenous peroxidase was blocked with 3% hydrogen peroxide for 5 min. A TCT protein block was applied for 10 min (0.05 M Tris, 0.15 M NaCl, 0.25% Casein, 0.1% Tween 20, pH 7.6). Supernatants from multiple boosting and pre-/post-fusion samples, along with antibody clone D12 were used at 1:20 and applied to the tissue for 30 min. The antibody was then detected using Leica Power Vision HRP Mouse specific polymer (Leica Biosystems catalog #PV6114) for 12 min and staining was visualized with Refine DAB (Leica Biosystems catalog #D59800) and a hematoxylin counterstain was used (Hematoxylin 50% in H2O from Biocare catalog #NM-HEM-M). Mouse isotype control slides were included for each run (Jackson ImmunoResearch Laboratories) at 2 μg/ml. Digital images of IHC-stained slides were obtained at ×40 magnification (0.25 μm/pixel) using a whole slide scanner (ScanScope AT Turbo, Aperio) fitted with a 20×/0.75 Plan Apo objective lens and ×2 magnification changer (Olympus, Center Valley, Pa., USA). […]

[2] = biological target: T2, full length TrkB.T1 protein (Mus musculus, UniProt P15209); test: Wes capillary Western blot of mouse brain detergent extracts (antibody screening Stage 2); conditions: normal and KO mouse brain detergent extracts; monoclonal culture super diluted 1:2
T2 construct: mouse brain lysates from TrkB.T1^+/+ and TrkB.T1^−/− mice were prepared by mechanical disruption; from tissue; host or cells: mouse brain (TrkB.T1+/+ wild type; TrkB.T1-/- as negative control)
Protocol: Wes™ capillary electrophoresis for antibody development. Protein Simple Wes™ was used at two stages of antibody screening: Stage 1, selecting immunized mice to advance for hybridoma generation, and Stage 2, for validation of monoclonal antibodies that Western blot full-length TrkB.T1 protein in murine brain detergent extracts. Briefly, mouse brain lysates from TrkB.T1^+/+ and TrkB.T1^−/− mice were prepared by mechanical disruption (Dounce tissue homogenizer, Kimble Chase) in RIPA lysis buffer (Pierce™ RIPA Lysis and Extraction Buffer, ThermoScientific™) containing HALT™ Protease and Phosphatase Inhibitor Cocktail and EDTA (ThermoScientific™) and normalized to 2 μg/μl total protein via Bradford Protein Assay. Approximately 8-10 ng total brain extract protein was loaded into the Protein Simple Capillary WES system for Western analysis following Protein Simple recommended methods (Rustandi, R. R., et al. Applications of an automated and quantitative CE-based size and charge western blot for therapeutic proteins and vaccines. Methods Mol. Biol. 1466, 197-217 (2016)). Mice with antisera (1:2500 dilution in PBS and Antibody Diluent (Protein Simple)) that identified a positive band at 90-100 kDa for the TrkB.T1 protein were advanced forward for final boosting, splenectomy, and hybridoma generation (FIG. 3B). […]

[3] = biological target: T3, TrkB.T1 (Homo sapiens, UniProt Q16620); test: TrkB.T1 immunohistochemistry on human brain
T3 construct: To determine endogenous localization of TrkB.T1 in human brain, a monoclonal antibody; from tissue; host or cells: normal human brain (rapid autopsy, FFPE sections)
Protocol: as §1

T1 sequence (P15209 32-476 isoform P15209-2 limits assumed): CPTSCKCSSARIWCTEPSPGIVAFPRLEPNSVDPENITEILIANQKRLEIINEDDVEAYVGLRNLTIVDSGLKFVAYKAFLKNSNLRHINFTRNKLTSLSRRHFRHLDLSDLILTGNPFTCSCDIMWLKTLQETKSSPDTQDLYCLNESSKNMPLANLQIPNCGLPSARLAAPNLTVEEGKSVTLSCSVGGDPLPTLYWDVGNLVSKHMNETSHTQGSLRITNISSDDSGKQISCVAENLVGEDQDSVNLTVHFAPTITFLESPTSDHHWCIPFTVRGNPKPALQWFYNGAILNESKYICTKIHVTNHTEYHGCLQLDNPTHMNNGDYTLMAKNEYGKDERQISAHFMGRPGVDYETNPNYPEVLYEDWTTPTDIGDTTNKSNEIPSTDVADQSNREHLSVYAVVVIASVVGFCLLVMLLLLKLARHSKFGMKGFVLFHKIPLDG
T3 sequence (Q16620 32-477 isoform Q16620-2 limits assumed): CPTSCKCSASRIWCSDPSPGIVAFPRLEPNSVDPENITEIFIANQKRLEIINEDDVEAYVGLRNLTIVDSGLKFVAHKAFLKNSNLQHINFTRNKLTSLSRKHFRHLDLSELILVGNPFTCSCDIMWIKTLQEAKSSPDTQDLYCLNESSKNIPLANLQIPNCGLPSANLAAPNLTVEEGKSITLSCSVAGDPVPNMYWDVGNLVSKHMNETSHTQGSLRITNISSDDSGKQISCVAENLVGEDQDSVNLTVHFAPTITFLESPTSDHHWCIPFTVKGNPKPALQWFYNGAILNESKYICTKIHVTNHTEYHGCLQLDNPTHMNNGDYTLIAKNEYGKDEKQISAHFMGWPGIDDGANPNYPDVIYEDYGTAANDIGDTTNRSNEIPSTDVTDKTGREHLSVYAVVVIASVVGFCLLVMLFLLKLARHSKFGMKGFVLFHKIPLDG
T2 sequence (P15209 32-476 isoform P15209-2 limits assumed): as the sequence (P15209 32-476 isoform P15209-2 limits assumed) above

B1: Clone FH1D12: Murine monoclonal antibody to the TrkB.T1 C-terminal peptide … (SEQ ID NO:1), raised in TrkB.T1 null mice (antibody, V domains shown)
VL: QTVVTQESALTTSPGETVTLTCRSSTGAVTTSNYANWVQEKPDHLFTGLIGGINNRAPGVPARFSGSLIGDKAVLTITGAQTEDEAIYFCALWYSNHWVFGGGTKLTVL
VH: VQLQQSGPELARPWASVKISCQAFYTFSRGIHFDIRNTMYWIQWVKQRPGQGLEWIGAIYPGNGDPTYSQNFKDKATLTADKSSNTAYMQLSSLTSEDSAVYYCARYDYGGGFTYWGQGTLVTVSAGS
- staining in TrkB.T1-/- knockout mouse brain ([1]; TrkB.T1-/- knockout mouse brain (specificity control)): absent
- immunostaining in wild-type (WT) mouse brain ([1]; wild-type mouse brain): positive
- Western blotting activity (full length TrkB.T1 protein) [2]: positive
- immunostaining in human brain [3]: positive
